Test results published in paper PMC4186968, “Molecular Basis for Coordinating Transcription Termination with Noncoding RNA Degradation” (Molecular Cell, 2014).

Columns and labels:
Nrd1p-Nab3p = experiment: Electromobility shift assay of Nrd1p-Nab3p binding to RNA substrates; set-up: species or system S. cerevisiae; conditions: EMSA as for wt RNA; not accurately determined due to poor fit of the curve; estimated by graphical interpolation; read-out: Affinity of Nrd1p-Nab3p for RNA, estimated by graphical interpolation
Excerpt: Figure S6: Related to figure 6. A. Coomassie stained SDS-PAGE showing 10 pmol of each protein preparation used (50 pmol of the CID). Asterisks indicate proteolytic fragments of Air2p (deletions at the C-terminal unstructured region) and Nrd1-ΔCIDp (N-terminal truncation) that constitutes approximately 20% of the full-length protein. M: molecular weight marker. B. Analysis of Nrd1p-Nab3p binding to either the wt RNA, containing motifs required for high-affinity RNA-binding (open boxes), or a mutant variant harboring point mutations designed to disrupt all motifs (mutations underlined). The plots correspond to affinity curves generated by the Prism software from values derived from three independent electromobility shift assays (see supplemental experimental procedures). Bars denote standard deviations.
The affinity for the mutant RNA could not be accurately determined due to the poor fit of the curve but it was estimated to be approximately 45 nM by graphical interpolation. C. Polyadenylation assays using the wt and the mutant RNAs as substrates to test whether high-affinity RNA-binding by Nrd1p-Nab3p is required for stimulation of polyadenylation. Panels correspond to different gels.
(1 picture or pasted object on this page, not shown here) […]
for Nrd1 and Nab3) and stored at -80 °C. […]
average of three measurements. The experimental binding isotherms were analyzed by non- […]

Trf4p NIM peptide = experiment: Equilibrium binding of Nrd1p CID mutants to the NIM peptide by fluorescence anisotropy (FA); set-up: species or system S. cerevisiae; conditions: Nrd1p CID variant vs wild-type
Excerpt: Equilibrium binding experiments with both the protein and peptide mutants (in red and blue, respectively) were monitored by FA (for the binding isotherms, see Figure S5).
The importance of these contacts was further tested in a quantitative in vitro binding assay using FA.

[1] = target: T1, Nrd1 (rNrd1);Nab3 (rNab3) (Saccharomyces cerevisiae;Saccharomyces …, UniProt P53617;P38996 1-575;1-802, |); experiment: EMSA; EMSA samples processed as described for the polyadenylation assays; buffer, salt, pH and temperature not in the material; n=3, single-site fit (Prism); conditions: protein: recombinant;recombinant; tags: ;C-terminal TEV-His6 (from pDL469 primers); copies: 1;1; single strand
T1 sequence 1: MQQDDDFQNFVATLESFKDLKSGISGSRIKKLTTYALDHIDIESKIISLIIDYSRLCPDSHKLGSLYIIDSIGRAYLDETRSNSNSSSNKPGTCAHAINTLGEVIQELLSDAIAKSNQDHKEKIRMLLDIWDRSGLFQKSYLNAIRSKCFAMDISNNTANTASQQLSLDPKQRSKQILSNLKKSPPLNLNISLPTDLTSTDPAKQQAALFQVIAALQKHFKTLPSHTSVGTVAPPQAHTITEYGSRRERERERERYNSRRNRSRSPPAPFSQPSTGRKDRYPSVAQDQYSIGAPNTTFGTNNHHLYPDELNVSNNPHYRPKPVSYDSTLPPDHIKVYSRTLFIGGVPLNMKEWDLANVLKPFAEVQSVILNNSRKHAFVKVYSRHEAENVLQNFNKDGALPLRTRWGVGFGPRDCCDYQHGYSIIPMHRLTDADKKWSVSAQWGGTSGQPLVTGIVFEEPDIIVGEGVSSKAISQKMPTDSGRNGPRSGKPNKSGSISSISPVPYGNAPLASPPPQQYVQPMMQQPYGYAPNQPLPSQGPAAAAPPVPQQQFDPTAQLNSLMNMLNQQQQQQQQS
T1 sequence 2: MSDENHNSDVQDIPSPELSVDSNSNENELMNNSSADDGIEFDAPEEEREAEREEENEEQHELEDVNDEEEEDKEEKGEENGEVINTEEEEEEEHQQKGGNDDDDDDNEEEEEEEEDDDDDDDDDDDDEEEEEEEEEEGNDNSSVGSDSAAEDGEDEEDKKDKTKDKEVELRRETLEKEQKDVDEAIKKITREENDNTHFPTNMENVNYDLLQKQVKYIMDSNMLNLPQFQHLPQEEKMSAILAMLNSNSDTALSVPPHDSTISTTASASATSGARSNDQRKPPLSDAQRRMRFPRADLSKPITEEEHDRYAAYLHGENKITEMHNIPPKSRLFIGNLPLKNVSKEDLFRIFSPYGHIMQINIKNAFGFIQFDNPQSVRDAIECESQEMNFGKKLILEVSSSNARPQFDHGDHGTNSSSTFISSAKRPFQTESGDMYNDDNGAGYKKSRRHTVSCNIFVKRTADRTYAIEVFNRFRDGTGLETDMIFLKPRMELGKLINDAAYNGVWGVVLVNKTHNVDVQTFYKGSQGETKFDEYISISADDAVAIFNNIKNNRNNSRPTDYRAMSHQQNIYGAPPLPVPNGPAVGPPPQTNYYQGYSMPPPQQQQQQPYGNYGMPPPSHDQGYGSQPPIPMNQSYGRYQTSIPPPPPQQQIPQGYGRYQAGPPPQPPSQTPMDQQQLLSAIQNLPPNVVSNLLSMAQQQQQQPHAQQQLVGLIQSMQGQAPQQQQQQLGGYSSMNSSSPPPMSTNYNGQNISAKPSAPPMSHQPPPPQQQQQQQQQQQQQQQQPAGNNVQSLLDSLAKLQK

[2] = target: T1, Nrd1 (rNrd1);Nab3 (rNab3); experiment: EMSA; Kd value not in the material (legend line truncated); EMSA samples processed as described for the polyadenylation assays; buffer, salt, pH and temperature not in the material; n=3, single-site fit (Prism); conditions: protein: recombinant;recombinant; tags: ;C-terminal TEV-His6 (from pDL469 primers); copies: 1;1; single strand

In the case of “mutant RNA: mutant RNA with point mutations disrupting all motifs: GAAACGCAAUGAAUUAAGACUCGAUACAUUGCAAUUAGCU (RNA, backbone not given here)”, the Kd (Nrd1p-Nab3p) is reported as roughly 45 nM.

B1: I130K (protein)
chain: MQQDDDFQNFVATLESFKDLKSGISGSRIKKLTTYALDHIDIESKIISLIIDYSRLCPDSHKLGSLYIIDSIGRAYLDETRSNSNSSSNKPGTCAHAINTLGEVIQELLSDAIAKSNQDHKEKIRMLLDKWDRSGLFQKSYLNAIRSKCFAMD
With B1 the “Decrease in binding affinity for NIM relative to wild-type CID (fold)” value (Trf4p NIM peptide) was 20 fold.

GAAACGUAAUGAAUUAAGUCUUGAUAUAUAACAAUUAGCU (ssRNA) [Wt RNA (DL2974)] was tested, and the Kd [1] was 2.4 ± 0.3 nM.

For GAAACGCAAUGAAUUAAGACUCGAUACAUUGCAAUUAGCU (ssRNA) [Mutant RNA (DL2975)], the “fold loss of affinity vs wt RNA” value [2] was ~20 fold lower affinity than wt RNA.
